FireProtDB

B1: FMN-dependent NADH:quinone oxidoreductase 1, Q88IY3 (parent)
chain: MKLLHIDSSILGDNSASRQLSREVVEAWKAADPSVEVVYRDLAADAIAHFSAATLVAAGTPEDVRDAAQAFEAKLSAETLEEFLAADAVVIGAPMYNFTVPTQLKAWIDRVAVAGKTFRYTEAGPQGLCGNKKVVLVSTAGGLHAGQPTGAGHEDFLKVFLGFIGITDLEIVRAHGLAYGPEQRSQAIDAAQAQIASELFAAA
B2: Formate dehydrogenase, O13437 (parent)
chain: MKIVLVLYDAGKHAADEEKLYGCTENKLGIANWLKDQGHELITTSDKEGETSELDKHIPDADIIITTPFHPAYITKERLDKAKNLKLVVVAGVGSDHIDLDYINQTGKKISVLEVTGSNVVSVAEHVVMTMLVLVRNFVPAHEQIINHDWEVAAIAKDAYDIEGKTIATIGAGRIGYRVLERLLPFNPKELLYYDYQALPKEAEEKVGARRVENIEELVAQADIVTVNAPLHAGTKGLINKELLSKFKKGAWLVNTARGAICVAEDVAAALESGQLRGYGGDVWFPQPAPKDHPWRDMRNKYGAGNAMTPHYSGTTLDAQTRYAEGTKNILESFFTGKFDYRPQDIILLNGEYVTKAYGKHDKK
B3: L7I|R17V|A28D|V49I|E91D|L96F|L97H|T99A|E103I|L110F|S111V|S115E|L120R|H121Y|G123D|T138Q|D139G|E140D|Q144E|A149D, Q88HV5 (parent)
chain: MPFQQGLLATPVPAHARHLFFTLQSPEALPAALDALLPQVDGKQLLLGVGAPLAKALGREIPGLRPFPLLDAAVENPSTQHALWLWLRGDERGDLLLRTQALEQALAPALSLADSVDGFLHRGGHDLTGYEDGTENPTDEEAVQAAIAADGSSFAAFQLWKHDLQYFKSLPQADQDNIIGRRLSDNEELDDAPASAHVKRTAQESFEPEAFMVRRSVSWADQRGAGLAFVALGKSFEAFEVQLRRMSGLEDGIIDGLYRFSRPLTGGYYWCPPMSETGVDLSPLLRA

Variants of: B1
Conditions: Pseudomonas putida (strain ATCC 47054 / DSM 6125 / CFBP 8728 / NCIMB 11950 / KT2440); Fluorescence spectroscopy; whole UniProt chain shown

| Variant | Tm [°C] | ddG of mutation (higher = less stable) [kcal/mol] |
| --- | --- | --- |
| Q192R A46P V159A A48P Y179H | 55 | -0.3 |
| Q192R A46P V159A C129S D7H A178D | 54 | 1.5 |
| Q192R A46P V159A C129S | 51 | -0.6 |
| Q192R A46P V159A | 55 | -0.8 |
| Q192R A46P V159A A48P | 55 | 3.3 |
| Q192R A46P V159A C129S A178D A88G N131D L143Q | 44 | -1.9 |

Variants of: B2
Conditions: Candida boidinii; whole UniProt chain shown

| Variant | Tm [°C] |
| --- | --- |
| A141M | 35 |
| A10C | 64 |
| N350W | 54 |
| D149L | 58 |
| A264P | 59 |
| S333Y | 55 |
| C23S | 54 |

Variants of: B3
Conditions: Pseudomonas putida (strain ATCC 47054 / DSM 6125 / CFBP 8728 / NCIMB 11950 / KT2440); pH 7.6; Fluorescence spectroscopy; whole UniProt chain shown

| Variant | Tm [°C] |
| --- | --- |
| L7I R17V A28D V49I E91D L96F L97H T99A E103I L110F S111V S115E L120R H121Y G123D T138Q D139G E140D Q144E A149D | 65 |
| A9L S25F A54V A149L V217M S218P Q222G L232F E237D | 66 |
| L7I R17V A28D A35R L110F S111V S115E L120R H121Y G123D T138Q D139G E140D Q144E A149D Q165D D174E K234H E237D | 65 |
| A28D A35R V49I L110F S111V S115E L120R H121Y G123D T138Q D139G E140D Q144E A149D Q222G P283A | 74 |
| A9L S25F D139G A149L A155V | 68 |
| R17V A28D V49I E91D L96F L97H T99A E103I T138Q D139G E140D Q144E A149D Q165D D174E A194E V217M Q222G K234H E237D P283A | 82 |
| A9L S25F D139G A149L A155V V279L | 68 |
| L7I R17V V49I Q165D D174E V217M Q222G E237D P283A | 68 |
| A9L E91D D94E Q100R L110F G118A L120R H125R D139G A149L A155V S169A V217M S218P Q222G L232F V279L | 69 |
| L7I R17V A28D A35R V49I E91D L96F L97H T99A E103I Q165D V217M Q222G K234H E237D | 67 |
| L7I A194E Q222G K234H E237D | 65 |
| A9L S25F A54V E91D D94E L110F G118A L120R H125R D139G A149L S169A V217M S218P Q222G L232F E237D V279L | 70 |
| S25F E91D D94E L110F G118A L120R H125R D139G A149L A155V S169A D174E | 75 |
| V49I E91D L96F L97H T99A E103I L110F S111V S115E V217M Q222G | 65 |
| L7I R17V A28D A35R V49I E91D L96F L97H T99A E103I L110F S111V S115E L120R H121Y G123D T138Q D139G E140D Q144E A149D Q165D D174E A194E V217M Q222G K234H E237D P283A | 83 |
| A9L S25F A54V E91D D94E Q100R L110F G118A L120R H125R D139G A149L A155V S169A D174E V217M S218P Q222G L232F E237D V279L | 74 |
| L7I R17V V49I Q165D V217M K234H E237D P283A | 68 |
| A9L S25F Q100R L110F G118A L120R H125R D139G A149L S169A E237D | 70 |
| A9L Q100R L110F G118A L120R H125R D139G L232F V279L | 74 |
| L7I R17V V49I Q165D V217M Q222G K234H P283A | 73 |
| L7I R17V A35R Q165D E237D | 75 |
| A9L S25F L110F G118A L120R H125R S169A D174E V217M S218P Q222G L232F E237D | 75 |
| A9L S25F A54V D139G S169A D174E E237D | 65 |
| A9L S25F A54V D94E Q100R L110F A149L A155V V217M S218P Q222G | 66 |
| A9L S25F A54V E91D D94E Q100R L110F G118A L120R H125R D139G A149L V217M S218P Q222G L232F E237D | 83 |
| L7I R17V A28D A35R E91D E103I L110F S111V S115E L120R H121Y G123D T138Q D139G E140D Q144E Q165D K234H E237D | 73 |
| L7I R17V A28D A35R V49I A149D D174E Q222G K234H E237D | 69 |
| L7I R17V A28D E91D L96F L97H T99A E103I L110F S111V S115E L120R H121Y G123D T138Q A149D Q165D | 71 |
| L7I E91D L110F S111V Q165D D174E A194E V217M Q222G K234H E237D | 71 |
